Results on one molecule are retold here after article PMC10981688 (2024).

For this test, the target named is recombinant human PCSK9 with 6x His tag (proprotein convertase subtilisin/kexin type-9) (human, UniProt Q8NBP7 31-692). Kind of test: BLI.

B1: recombinant human CAP1 (adenylyl cyclase-associated protein 1) (natural protein)
chain: MADMQNLVERLERAVGRLEAVSHTSDMHRGYADSPSKAGAAPYVQAFDSLLAGPVAEYLKISKEIGGDVQKHAEMVHTGLKLERALLVTASQCQQPAENKLSDLLAPISEQIKEVITFREKNRGSKLFNHLSAVSESIQALGWVAMAPKPGPYVKEMNDAAMFYTNRVLKEYKDVDKKHVDWVKAYLSIWTELQAYIKEFHTTGLAWSKTGPVAKELSGLPSGPSAGSCPPPPPPCPPPPPVSTISCSYESASRSSLFAQINQGESITHALKHVSDDMKTHKNPALKAQSGPVRSGPKPFSAPKPQTSPSPKRATKKEPAVLELEGKKWRVENQENVSNLVIEDTELKQVAYIYKCVNTTLQIKGKINSITVDNCKKLGLVFDDVVGIVEIINSKDVKVQVMGKVPTISINKTDGCHAYLSKNSLDCEIVSAKSSEMNVLIPTEGGDFNEFPVPEQFKTLWNGQKLVTTVTEIAG
On to B1, for which the koff stood at 0.00132 s⁻¹.
